This series has as its target TM52 (TetR-MphR hybrid regulator) (synthetic chimera of TetR and MphR; …, UniProt P04483 1-52+Q9EVJ6:56-194, internal_change). The series is described as follows: EMSA. On the technique in general: Mobility shift assays separate free from complexed probe on a gel.

B1: TM52 operator fragment (hybrid tet operator, 2-bp spacer) (dsDNA)
DNA 1: GCGGTGATACTCCCTATCAGTTGATAGAGAGAGCACATCA
DNA 2: TGATGTGCTCTCTCTATCAACTGATAGGGAGTATCACCGC
Turning to B1, the binding result is reported as “binds”.
